PMC3520743, “Bacillus cereus Fnr binds a [4Fe-4S] cluster and forms a ternary complex with ResD and PlcR” (BMC Microbiology, 2012)

Biological target: the molecule itself
Experiment: SEC + other: SDS-PAGE under non-reducing conditions; analytical gel filtration chromatography and SDS-PAGE without DTT or beta-mercaptoethanol; apparent molecular mass ca. 60,000; dimer

B1: Bacillus cereus Fnr, recombinant tag-less apo-form (natural protein, Bacillus cereus F4430/73, UniProt A4GFD9 1-230, looked up)
chain: MANSMTLSQDLKELLASVEYKMQIKKGSFIFQEGMEATELYIIHSGKVQISKLSADGQELTLRICSAYDIIGELTLFTDNAKYLLNSKCLEDVEVGVIKREALEKELLQKPALVFEFMKWISEHLRRMQTKFRDLVLHGKKGALYSTLIRMTNSYGILKENGILIDLPLTNQELANFCATSRESVNRMLNELKKQGTISIHKGKITIHDLQFLKCEIACEDCSASVCSID
notes: also called apoFnr; tag-less Fnr; source: E. coli BL21 CodonPlus(DE3)-RIL (pET101fnr), aerobically grown, purified (DEAE-cellulose, hydroxyapatite, Superdex 200)
stoichiometry N: 2
